According to publication PMC5122161, “Novel prokaryotic expression of thioredoxin-fused insulinoma associated protein tyrosine phosphatase 2 (IA-2), its characterization and immunodiagnostic application” (BMC Biotechnology, 2016):

Target: the molecule itself
Assay: SEC; Superdex 75 HR 10/30, PBS as mobile phase, room temperature, 1.0 mL/min, 50 ug/500 uL purified TrxIA-2ic injected; calibration with globular standards; eluted fractions identified by western blot with rabbit serum to IA-2

B1: intracellular domain of IA-2 fused to thioredoxin (TrxIA-2ic) (domain or fragment, human, UniProt Q16849 604-979, looked up)
chain: ARQQDKERLAALGPEGAHGDTTFEYQDLCRQHMATKSLFNRAEGPPEPSRVSSVSSQFSDAAQASPSSHSSTPSWCEEPAQANMDISTGHMILAYMEDHLRNRDRLAKEWQALCAYQAEPNTCATAQGEGNIKKNRHPDFLPYDHARIKLKVESSPSRSDYINASPIIEHDPRMPAYIATQGPLSHTIADFWQMVWESGCTVIVMLTPLVEDGVKQCDRYWPDEGASLYHVYEVNLVSEHIWCEDFLVRSFYLKNVQTQETRTLTQFHFLSWPAEGTPASTRPLLDFRRKVNKCYRGRSCPIIVHCSDGAGRTGTYILIDMVLNRMAKGVKEIDIAATLEHVRDQRPGLVRSKDQFEFALTAVAEEVNAILKALPQ
notes: insulinoma associated protein tyrosine phosphatase 2 (IA-2), human, intracellular domain IA-2ic, residues 604 to 979 of the 979-residue protein; codon-optimised synthetic gene adapted from GenBank L18983.1; Thioredoxin was not removed; also called thioredoxin-fused insulinoma associated protein tyrosine phosphatase 2; not shown: thioredoxin (E. coli), N-terminal, kept
- stoichiometry N: 2
